Measurements published in patent publication US8557771B2, “Homodimer of insulinotropic peptide analogues and method for preparation thereof and use thereof” (Chongqing Fagen Biomedical Inc., priority 2009, dated 2013).
Bridge positions count the residues as written; N and C are the ends. Ends that are not written are not given here. I, II: the chains in the order shown.

B1: Di-GLP-G8C: Homodimer of GLP-G8C (SEQ ID NO: 4), formed by oxidation at the C-terminal Cys (peptide)
chain 1: HGEGTFTSDVSSYLEGQAAKEFIAWLVKGGGGGSC
chain 2: HGEGTFTSDVSSYLEGQAAKEFIAWLVKGGGGGSC
modifications: disulfide I:35-II:35
B2: Ex4C-Ex4C: Homodimer of Ex4C(NH2) (SEQ ID NO: 3), joined by a disulfide bond between the C-terminal Cys residues (peptide)
chain 1: HGEGTFTSDLSKQMEEEAVRLFIEWLKNGGSGGSC
chain 2: HGEGTFTSDLSKQMEEEAVRLFIEWLKNGGSGGSC
modifications: disulfide homodimer, C-terminal amide; Ex4C peptide sequence

Tested on: Balb/c mice
Test: Blood sugar regulation in mice in vivo after intraperitoneal drug and glucose injection
Conditions: 3 hours after administration; 100 μl of 10 nmol/L drug i.p. with 200 μl of 40% glucose; FIG. 5
Description: After fasting overnight, mice were intraperitoneally injected respectively with 100 μl of different drugs that were dissolved to 10 nmol/L in a 10 mmol/L sodium phosphate buffer (pH6.5), and meanwhile injected with 200 μl of glucose solution (40%). Blood was sampled at 30, 60, 120, and 180 min after drug administration and blood sugar was assayed (Blood sugar meter, LifeScan, Inc.). Then, 200 μl of glucose solution (40%) was intraperitoneally injected again at 24 hours, 48 hours, 72 hours and 96 hours after drug administration, respectively. Blood was sampled at 30 and 60 min after glucose administration and blood sugar was assayed (Blood sugar meter, LifeScan, Inc.).

| Molecule | blood sugar level |
| --- | --- |
| B1 | well-regulated |
| B2 | well-regulated |
